Measurements taken from US6596261B1, “Method of administering a medicinal aerosol formulation” (Aeropharm Technology Incorporated, priority 2000, dated 2003).
Ends that are not written are not given here.

Assay: Pharmacokinetics of amylin in rabbits after intravenous versus intrapulmonary administration
Type: in vivo, New Zealand rabbits
Conditions: for Vd: average of six; for Ke: elimination rate constant; for K12: rate constant central to peripheral compartment; for K21: rate constant peripheral to central compartment
Description: The table listed below discloses the average measured results
Referring to FIG. 2, the experimental results obtained were compared to the results calculated using formulae (I) through (VI). The calculated data is totally consistent with the experimental data of this EXAMPLE.

[1] = Intrapulmonary Administration, dose: 7.5 μg/kg
[2] = Intravenous Administration, dose: 5.0 μg/kg

With “amylin (KCNTATCATQRLANFLVHSSNNFGAILSSTNVGSNTY; not fully specified (C-terminus, bridges); cysteine pairing not given here; UniProt P10997 34-70, looked up) [β-cell hypoglycemic medicament; natural, synthetic, semi-synthetic or recombinant amylin or amylin analogs]” the “AUC (Area under the blood concentration time course curve)” value [1] was 16.9670 ng·min/mL, the “F (Bioavalability), Percent of administered drug absorbed from the lung dose” value [1] was 24.9% and the “T1/2 (Half life of the drug in the body)” value [1] was 26.3819 min. For the same substance, the Vd [1] was 63.0911 L, the Ke [1] was 0.02627 min⁻¹ and the K12 [1] was 0.03211 min⁻¹. For the same substance, the K21 [1] was 0.01774 min⁻¹, the “AUC (Area under the blood concentration time course curve)” value [2] was 45.4016 ng·min/mL and the “T1/2 (Half life of the drug in the body)” value [2] was 17.1771 min. The Vd [2] was 9.5246 L, the Ke [2] was 0.0403 min⁻¹ and the K12 [2] was 0.0180 min⁻¹. For the same substance, the K21 [2] was 0.0075 min⁻¹.
